Experiment [1] concerns the target recombinant α-secretase N-terminal soluble form of APP695 (sAPPα^695) (human). The experiment is described as follows: other fluorescence titration; native tryptophan fluorescence, excitation 295 nm, change of intensity at 340 nm against Lf concentration, fitted to two independent sites on an acceptor; 96-well quartz microplate.
Experiment [2] shares this target. In words: AUC; sedimentation velocity, 50,000 rpm, absorbance at 280 nm, c(S) model (Sedfit); APP 2.5 μM with holo-Lf 2.5, 3.75, 5 μM or apo-Lf 2.5, 12.5 μM; weight average sedimentation coefficients fitted to a two-site binding model.

Take “holo-lactoferrin (iron-bound form of Lf) (natural protein)”: in experiment [1], the Kd1:1 (first site, two-site model) was determined as 690 nM and the Kd1:2 (second site, two-site model) turned out to be 9.4 µM. Also, in experiment [2], the Kd1:1 (first site, two-site binding model) stood at 620 nM; the Kd1:2 (second site, two-site binding model) worked out at 8.2 µM; the stoichiometry N (Lf molecules per sAPPα695 molecule) was determined as 2.

Values taken from PMC8758478.
